Laboratory results reported in the supplement of paper PMC9170038.

Assays:
MS2 coat protein [1] = test: apparent KD of MS2 coat protein, switch ON state; designed switch direction (-1 OFF switch, 1 ON switch): -1; higher = weaker reporter binding; details: FMN input: 0 or 200 uM; Eterna round: R93 (includes R88 designs)
How it was run: (§1)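 Binding of SNAP-549-labelled MS2 coat protein was measured on designed RNA switches transcribed on-chip from Illumina sequencing clusters. The protein rose in twofold steps from 0.7 or 1.5 nM to 3 µM, with 0.8–1.5 h per step early on and 10–20 min per step later, in 100 mM Tris-HCl pH 7.5, 80 mM KCl, 4 mM MgCl2, without or with constant ligand. Each design's apparent KD is the median of fits to its normalised cluster binding curves.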

MS2 coat protein [2] = test: apparent KD of MS2 coat protein, switch OFF state (with FMN for OFF switches, without FMN for ON switches); designed switch direction (-1 OFF switch, 1 ON switch): -1; higher = weaker reporter binding; details: FMN input: 0 or 200 uM; Eterna round: R93 (includes R88 designs)
How it was run: as §1

| Sequence | apparent KD of MS2 coat protein (MS2 coat protein [1]) [nM] | apparent KD of MS2 coat protein (MS2 coat protein [2]) [nM] |
| --- | --- | --- |
| AAAAGACAUGAGGAUCACCCAUGUGAGGAUAUCGGAAAAGGAAAAAUAAAAAAGAAGACGAGAAGGCACACCAA [Mat - Exclusion 1 - Eli mod - D75] | 43.9 | 48.2 |
| GAAAGUGGAGGAUAUACAUGAGGAUCACCCAUGUGUAAAAAUAAAUACACAAAAGAAAGUAGAAGGCCACAAAG [Mat - Exclusion 3 - Mayanna mod - D118] | 30.6 | 125 |
| AAGAACUGAGGAUAUACAAAAUAAAAGAAAAGAAAGAAAGAACAUGAGGAUCACCCAUGUAGAAGGCAGAAGAA [Sekhemre Khutawy Sobekhotep I] | 27.6 | 19.7 |
| AAAAAACAUGAGGAUCACCCAUGUAAGGAUAUGCUGAAAAACACGGAAAAAACGUGCAGCAGAAGGUACAAAGA [Mat - Exclusion 1 - Eli mod - D96] | 18.3 | 39.9 |
| AUAGGCCUAGGAUAUACAUGAGGAUCACCCAUGUUAAUAUUUCAAACAUGAUAAACGUGUAGAAGGAGGAAUAA [JR_Exc003_Sub303] | 41.7 | 50.8 |
| AACAGUACAGGAUAUACAUGAGGAUCACCCAUGUGAGACUUAAAAGGCGUACCUAAAAGUAGAAGGGUACUGGA [JL Maslow Revisted mod 21] | 56.1 | 176 |
| UUUAUGUGAGGAUAUACGAAUAGUAAGUAAGUAUUACAGACGUAGAAGGCACAUGAGGAUCACCCAUGUGAAUA [JR_Exc004_Sub307] | 32.7 | 58.8 |
| AAAAAGGGAGGAUAUACAUGAGGAUCACCCAUGUAACAGACGAAAAAGAGUCUGAAAAGUAGAAGGCCCAAAAA [65%, Moding Exclusion3-cac2, 7] | 24.7 | 19.2 |
| AGUGAGUGAGGAUAUGACUGAAGAAUAAAAGAAAUAACAAGUCAGAAGGCACAUGAGGAUCACCCAUGUACACA [May 60] | 28.8 | 25.6 |
| AAAAAACAUGAGGAUCACCCAUGUCAGGAUAUGCUCAACAAUAUUCCAAAAAAGAACGGUAGAAGGGACAGGAA [Bilbo Confounded 25 - Jieux - Exclusion 1] | 30.4 | 22.3 |
| AGGAAACAUGAGGAUCACCCAUGUAAGGAUAUCAGAAAGAAAAGAAAAGAAAGAAGAAUGAGAAGGUACAAGAA [Horus Bird] | 29.1 | 34 |
| AAAGAUACAGGAUAUACAUGAGGAUCACCCAUGUGGAACCAAAAAUGGGAAAAAGAAAGUAGAAGGGUAUAAAA [Ex 3 May 37] | 38.8 | 35.7 |
| AAGAAACAUGAGGAUCACCCAUGUAAGGAUAUCUAAAAGAAAAGAAAAGAAAGAAGAAAGAGAAGGUACAAAGG [Nebhetepre Mentuhotep II] | 87.3 | 81.3 |
| AAAACGAUAGGAUAUACAUGAGGAUCACCCAUGUUAAAAUGUAGAAGGCUGAAAAAAAGUAGAAGGAUCAAAAA [EXC - 3] | 29.5 | 34.4 |
| UUAGAACAUGAGGAUCACCCAUGUGAGGAUAUGCAAUACUAGCGACAAGAUCGUUAUAGCAGAAGGCACGUAGU [JR_EXc001_Sub807] | 38.6 | 64.5 |
| AGCUAGUCAGGAUAUACGAACAUGUCAAAAGACGUGAGAGAACAUGAGGAUCACCCAUGUAGAAGGGACUAGCA [Mat - Exclusion 2 - JL-Eli mod - D47] | 18.7 | 13.1 |
| AAAAAACAUGAGGAUCACCCAUGUCAGGAUAUCCGGUUCUUAAAAAAAAAGAGGCGUUGGAGAAGGGACAUUCC [Chica Displaced 12 - Jieux - Exclusion 1] | 26.7 | 41.7 |

| Sequence | apparent KD of MS2 coat protein (MS2 coat protein [1]) [nM] | apparent KD of MS2 coat protein (MS2 coat protein [2]) [nM] |
| --- | --- | --- |
| AAAAAACAUGAGGAUCACCCAUGUAAGGAUAUCUAAAAUAAAAGAAAAAUAAAGAAAAGGAGAAGGUAUAUGGA [JL wbt mod 24] | 27.1 | 37.3 |
| AAAAAACAUGAGGAUCACCCAUGUAAGGAUAUGUAAAACCCAUAUAAAAAGGGAAAAAACAGAAGGUGCAAAAA [wbt round 1 mod 6] | 35.1 | 30.4 |
| AAACGUAGAGGAUAUACAUAAGUAUUACGAAAGUAAUACAAACAUGAGGAUCACCCAUGUAGAAGGCUACGAAA [MOD2 of Meechl's MS2 Ex2 (MS2 riboswitches - Exlclusion 2)] | 24.9 | 28 |
| AAAAAACAUGAGGAUCACCCAUGUGAGGAUAUCCAGAAGGGAAUAAAAUAACUCGAAAGGAGAAGGCGCAAAAA [Ex 1 May 34] | 31.8 | 26.2 |
| AGUCAUACAGGAUAUACAUGAGGAUCACCCAUGUAAAUCCUAAAAAGAAAAAACUCAUGUAGAAGGGUAUGACA [EX3 223: Super Stable 23] | 16.1 | 39.2 |
| AAUAAGUGAGGAUAUGGAAAUAGUAGAUAAGAUUCCCUAAACCAGAAGGCACAUGAGGAUCACCCAUGUAAAUA [JR_Exc004_Sub005] | 38.7 | 26.4 |
| AAAAACCGAGGAUAUACAUGAGGAUCACCCAUGUAAAAAAAAAAAAAGGGAAAAAAAAGUAGAAGGCGGAAAAA [Djehuti Sekhemresementawy] | 26.2 | 34.8 |
| AAGAACGUAGGAUAUACAUGAGGAUCACCCAUGUAAAAGAAAGAAAGGGAAAAGAAAAGUAGAAGGACGAAGAA [Hedjkheperre-setepenre Shoshenq I] | 29.7 | 77.9 |
| AUCAUGUUAGGAUAUUAAAGAAAAGAAAAGAAAGAAAAGAAUAAGAAGGAACAUGAGGAUCACCCAUGUAAGAA [EteRNA is fun!] | 30.4 | 29.7 |
| AAGAAGGUAGGAUAUACAUGAGGAUCACCCAUGUAAAAGAAAGAGGGAAAAGAGAAAAGUAGAAGGACCAAGAA [Ankhmakis] | 34.3 | 50.1 |
| AAAUGACAUGAGGAUCACCCAUGUCAGGAUAUGACUUGAAAAUAAAAUAAAAAACAUGUCAGAAGGGACAUGAA [Design 49: Sub-opt EB] | 13.5 | 12.4 |
| AAGAACGUAGGAUAUACAUGAGGAUCACCCAUGUAAAAGAAAGAAGGGAAAGAGAAAAGUAGAAGGACGAAGAA [Wahkare Bakenrenef] | 21.6 | 34.4 |
| ACCAGACAUGAGGAUCACCCAUGUCAGGAUAUGCAUCUUAGGAAAAAAAAACUAAGAUGCAGAAGGGACAAGGG [Design 5: Super Stable - A-U mutation] | 16 | 20.1 |
| AAGGAUCGAGGAUAUACAUAGAUACAGAUACAUGUAGAACUACAUGAGGAUCACCCAUGUAGAAGGCGAUCAUA [AJ 30] | 23.9 | 56.3 |
| AAGAACGCAGGAUAUAUUAAGGGACAAAGAAGGAAGAAUAAACAUGAGGAUCACCCAUGUAGAAGGGCGAAGAA [JR_Exclusion2_Sub4] | 49.4 | 43.5 |
| AAAAGACAUGAGGAUCACCCAUGUCAGGAUAUGACUUGAAAAAUAAAAUAAAAACAUGUCAGAAGGGACAUGAA [Design 46: Sub-opt DB] | 28.5 | 25.2 |
